Data taken from patent KR20200144536A (dated 2020).

T1: 재조합 hAng-2 (C-His, R&D Systems) (human, UniProt O15123 19-496)
T1 construct: Bought protein; also called 인간 Ang-2 단백질; not shown: C-terminal His tag
T1 sequence: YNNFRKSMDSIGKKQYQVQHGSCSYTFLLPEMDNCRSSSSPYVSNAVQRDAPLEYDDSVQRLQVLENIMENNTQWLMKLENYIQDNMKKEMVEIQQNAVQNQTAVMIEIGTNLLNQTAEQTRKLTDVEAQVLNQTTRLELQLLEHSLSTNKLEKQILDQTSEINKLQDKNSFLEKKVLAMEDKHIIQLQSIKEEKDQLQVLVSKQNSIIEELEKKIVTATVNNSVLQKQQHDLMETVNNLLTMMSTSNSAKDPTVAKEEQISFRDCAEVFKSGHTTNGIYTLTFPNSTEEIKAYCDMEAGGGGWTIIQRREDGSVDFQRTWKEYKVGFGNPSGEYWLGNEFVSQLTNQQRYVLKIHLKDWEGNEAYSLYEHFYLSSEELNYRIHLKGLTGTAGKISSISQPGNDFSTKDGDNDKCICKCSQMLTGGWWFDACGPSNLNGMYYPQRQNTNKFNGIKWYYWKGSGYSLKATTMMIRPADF


What was measured:
hTie2-Fc (R&D Systems) = biological target: T2, hTie2-Fc (R&D Systems) (human, UniProt Q02763 23-745); assay: Complex ELISA: coated Tie2-Fc (4 ug/ml), 0.25 ug/ml Ang2 and 2 ug/ml 10D6, anti-mouse IgG-HRP, OD450
T2 construct: Bought fusion protein; neither the Tie2 range nor the linker is stated; also called hTie-2/Fc 융합 단백질; not shown: Fc of human IgG1
T2 sequence (Q02763 23-745 limits assumed): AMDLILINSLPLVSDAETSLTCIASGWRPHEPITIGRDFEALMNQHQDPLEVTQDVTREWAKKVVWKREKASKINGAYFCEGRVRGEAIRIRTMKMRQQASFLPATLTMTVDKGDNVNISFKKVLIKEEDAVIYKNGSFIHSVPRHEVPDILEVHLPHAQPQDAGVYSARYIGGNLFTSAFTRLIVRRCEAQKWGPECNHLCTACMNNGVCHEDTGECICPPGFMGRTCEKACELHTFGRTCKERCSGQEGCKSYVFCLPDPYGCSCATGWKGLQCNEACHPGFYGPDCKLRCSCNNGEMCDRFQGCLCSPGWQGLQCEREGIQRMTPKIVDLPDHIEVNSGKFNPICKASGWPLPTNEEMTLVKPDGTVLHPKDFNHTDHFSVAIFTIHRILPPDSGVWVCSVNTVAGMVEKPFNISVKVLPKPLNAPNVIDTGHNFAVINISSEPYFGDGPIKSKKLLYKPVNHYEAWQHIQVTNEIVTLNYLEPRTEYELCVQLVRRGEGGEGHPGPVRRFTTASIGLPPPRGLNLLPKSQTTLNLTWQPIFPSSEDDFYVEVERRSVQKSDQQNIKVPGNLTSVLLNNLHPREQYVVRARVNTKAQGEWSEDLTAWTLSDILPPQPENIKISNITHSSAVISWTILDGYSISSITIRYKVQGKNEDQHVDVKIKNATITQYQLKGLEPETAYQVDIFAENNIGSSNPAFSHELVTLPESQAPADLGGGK

[1] = biological target: Mutant Ang2 A449 (알라닌 치환), FLAG-tagged (human) (UniProt O15123); assay: ELISA, coated antibody (1000 nM), 250 ng FLAG-tagged mutant Ang2, anti-FLAG-HRP, OD450
[2] = biological target: Mutant Ang2 D448 (알라닌 치환), FLAG-tagged (human) (UniProt O15123); assay: as above
[3] = biological target: Mutant Ang2 F469 (알라닌 치환), FLAG-tagged (human) (UniProt O15123); assay: as above
[4] = biological target: Mutant Ang2 I434 (알라닌 치환), FLAG-tagged (human) (UniProt O15123); assay: as above
[5] = biological target: Mutant Ang2 K468 (알라닌 치환), FLAG-tagged (human) (UniProt O15123); assay: as above
[6] = biological target: Mutant Ang2 N421 (알라닌 치환), FLAG-tagged (human) (UniProt O15123); assay: as above
[7] = biological target: Mutant Ang2 N467 (알라닌 치환), FLAG-tagged (human) (UniProt O15123); assay: as above
[8] = biological target: Mutant Ang2 P419 (알라닌 치환), FLAG-tagged (human) (UniProt O15123); assay: as above
[9] = biological target: Mutant Ang2 P452 (알라닌 치환), FLAG-tagged (human) (UniProt O15123); assay: as above
[10] = biological target: Mutant Ang2 Q418 (알라닌 치환), FLAG-tagged (human) (UniProt O15123); assay: as above
[11] = biological target: Mutant Ang2 S417 (알라닌 치환), FLAG-tagged (human) (UniProt O15123); assay: as above
[12] = biological target: Mutant Ang2 Y460 (알라닌 치환), FLAG-tagged (human) (UniProt O15123); assay: as above
[13] = biological target: T1, 재조합 hAng-2 (C-His, R&D Systems); assay: SPR, BIAcore T100; hAng-2 (C-His) captured on an anti-His CM5 chip, antibody flowed from 100 nM in 2-fold dilutions

Binder	binding result (hTie2-Fc (R&D Systems))	binding to Mutant Ang2 relative to native Ang2 (%) [1]	binding to Mutant Ang2 relative to native Ang2 (%) [2]	binding to Mutant Ang2 relative to native Ang2 (%) [3]	binding to Mutant Ang2 relative to native Ang2 (%) [4]	binding to Mutant Ang2 relative to native Ang2 (%) [5]	binding to Mutant Ang2 relative to native Ang2 (%) [6]	binding to Mutant Ang2 relative to native Ang2 (%) [7]	binding to Mutant Ang2 relative to native Ang2 (%) [8]	binding to Mutant Ang2 relative to native Ang2 (%) [9]	binding to Mutant Ang2 relative to native Ang2 (%) [10]	binding to Mutant Ang2 relative to native Ang2 (%) [11]	binding to Mutant Ang2 relative to native Ang2 (%) [12]	Kd [13]
Ang2 단백질(R&D systems) (ligand) YNNFRKSMDSIGKKQYQVQHGSCSYTFLLPEMDNCRSSSSPYVSNAVQRDAPLEYDDSVQRLQVLENIMENNTQWLMKLENYIQDNMKKEMVEIQQNAVQNQTAVMIEIGTNLLNQTAEQTRKLTDVEAQVLNQTTRLELQLLEHSLSTNKLEKQILDQTSEINKLQDKNSFLEKKVLAMEDKHIIQLQSIKEEKDQLQVLVSKQNSIIEELEKKIVTATVNNSVLQKQQHDLMETVNNLLTMMSTSNSAKDPTVAKEEQISFRDCAEVFKSGHTTNGIYTLTFPNSTEEIKAYCDMEAGGGGWTIIQRREDGSVDFQRTWKEYKVGFGNPSGEYWLGNEFVSQLTNQQRYVLKIHLKDWEGNEAYSLYEHFYLSSEELNYRIHLKGLTGTAGKISSISQPGNDFSTKDGDNDKCICKCSQMLTGGWWFDACGPSNLNGMYYPQRQNTNKFNGIKWYYWKGSGYSLKATTMMIRPADF	binds	–	–	–	–	–	–	–	–	–	–	–	–	–
SAIT-ANG2-AB-m10D6 (antibody, V domains shown, Mouse monoclonal antibody from a hybridoma (KCLRF-BP-00295), purified on protein G; also called 10D6 항체; 10D6 anti-Ang2 항체) VH: DVQLQESGPGLVKPSQSLSLTCTVTGYSITSDYAWNWIRQFPGNKLEWMGYINYSGNTDYNPSLKSRSSITRDTSKNQFFLQLNSVTTGDTATYYCARGNFEGAMDYWGQGTSVTVSS VL: SIVMTQTPKFLLVSAGDRVTITCKASQSVSNDVAWYQQKPGQSPKLLIYYASNRYPGVPDRFTGSGYGTDFTFTISTVQAEDLAVYFCQQDYSSPWTFGGGTKLEIK	–	97.9%	105%	109%	109%	110%	109%	107%	41.1%	102%	38.9%	101%	103%	8 nM
